The record followed here is patent US20110077196A1.

The experiment has as its target human insulin receptor isoform B (human) (UniProt P06213). The experiment is described as follows: competitive displacement of 125I-Tyr^A14-insulin, plate antibody capture of receptor.
Sequence of UniProt P06213 (P06213 other isoform, or with tags, fused parts or gaps): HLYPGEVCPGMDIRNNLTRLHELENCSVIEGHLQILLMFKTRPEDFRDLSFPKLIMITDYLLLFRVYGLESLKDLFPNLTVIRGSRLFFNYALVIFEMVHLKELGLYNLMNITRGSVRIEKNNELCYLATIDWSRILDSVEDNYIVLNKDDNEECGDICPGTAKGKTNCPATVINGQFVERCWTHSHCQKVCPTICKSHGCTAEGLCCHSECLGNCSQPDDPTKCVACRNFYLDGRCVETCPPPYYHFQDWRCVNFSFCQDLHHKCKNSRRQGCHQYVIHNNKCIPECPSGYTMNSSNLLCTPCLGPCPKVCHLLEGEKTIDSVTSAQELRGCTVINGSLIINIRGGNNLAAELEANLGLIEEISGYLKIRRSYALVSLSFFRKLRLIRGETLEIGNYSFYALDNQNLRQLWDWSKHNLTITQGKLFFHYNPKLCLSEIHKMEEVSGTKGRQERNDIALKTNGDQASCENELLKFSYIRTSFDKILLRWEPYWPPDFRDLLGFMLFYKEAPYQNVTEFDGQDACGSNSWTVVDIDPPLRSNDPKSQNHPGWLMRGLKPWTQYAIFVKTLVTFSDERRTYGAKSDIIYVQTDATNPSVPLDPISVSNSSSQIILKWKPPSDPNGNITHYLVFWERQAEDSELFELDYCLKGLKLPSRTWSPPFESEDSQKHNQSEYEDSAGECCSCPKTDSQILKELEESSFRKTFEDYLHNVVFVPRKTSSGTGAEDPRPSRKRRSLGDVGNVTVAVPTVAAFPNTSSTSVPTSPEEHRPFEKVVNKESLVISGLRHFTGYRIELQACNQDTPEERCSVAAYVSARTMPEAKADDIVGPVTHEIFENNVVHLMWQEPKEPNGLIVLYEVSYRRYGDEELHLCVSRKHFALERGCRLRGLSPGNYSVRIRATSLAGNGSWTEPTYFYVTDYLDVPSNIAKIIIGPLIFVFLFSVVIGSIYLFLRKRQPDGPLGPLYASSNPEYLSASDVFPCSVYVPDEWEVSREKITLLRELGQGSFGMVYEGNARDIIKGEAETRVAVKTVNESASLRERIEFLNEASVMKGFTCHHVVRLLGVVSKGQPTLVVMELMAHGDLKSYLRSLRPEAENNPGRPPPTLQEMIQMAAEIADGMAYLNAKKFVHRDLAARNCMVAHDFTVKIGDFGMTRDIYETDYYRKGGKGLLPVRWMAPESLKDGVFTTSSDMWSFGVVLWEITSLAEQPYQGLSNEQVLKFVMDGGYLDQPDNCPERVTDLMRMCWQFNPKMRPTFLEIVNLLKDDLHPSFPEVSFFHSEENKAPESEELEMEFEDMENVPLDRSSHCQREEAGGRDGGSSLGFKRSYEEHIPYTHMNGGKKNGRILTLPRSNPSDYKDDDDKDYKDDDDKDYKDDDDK

Usually Kd stands for a measure of binding affinity in units of concentration. A low value points to higher affinity. With “XKPEE: analogue with 2-methyl-Phe^B24 (called X), Lys^B28, Pro^B29, and EE-extension (Glu^B31, Glu^B32) (ligand)”, the dissociation constant Kd amounted to 0.04 nM.
